{
  "source": "patent US6670160B2",
  "about": "“α1,2-fucosyltransferase” (priority 1998, dated 2003)",
  "molecules": {"B1": {"name": "α1,2FucT (UA802): H. pylori UA802 α1,2-fucosyltransferase (SEQ ID NO:2), overexpressed in E. coli from plasmid pGEMI6 (protein)", "chain": "MAFKVVQICGGLGNQMFQYAFAKSLQKHLNTPVLLDTTSFDWSNRKMQLELFPIDLPYANAKEIAIAKMQHLPKLVRDALKYIGFDRVSQEIVFEYEPKLLKPSRLTYFFGYFQDPRYFDAISSLIKQTFTLPPPPENNKNNNKKEEEYQRKLSLILAAKNSVFVHIRRGDYVGIGCQLGIDYQKKALEYMAKRVPNMELFVFCEDLKFTQNLDLGYPFTDMTTRDKEEEAYWDMLLMQSCKHGIIANSTYSWWAAYLMENPEKIIIGPKHWLFGHENILCKEWVKIESHFEVKSQKYNA"}},
  "type_in_all_cases": "biochemical",
  "key": {"[1]": {"test": "Reaction products by capillary electrophoresis, TMR-labeled acceptor Type 1", "settings": "acceptor Type 1 labeled with TMR; authentic product H type 1", "description": "(§1) The reaction products synthesized from different acceptors by the Hp α1,2 FucT were further characterized by capillary electrophoresis with laser-induced fluorescence detection. The reaction mixture contained the overproduced UA802 α1,2 FucT protein (from pGEMI6 clone), GDP-fucose, and different acceptors labeled with tetramethylrhodamine (TMR). The results (FIG. 7) confirmed the data from the enzyme assay using radioactive labeled GDP-fucose (Table 3B) by identifying the products of the reactions."}, "[2]": {"test": "Fucosyltransferase assay (GDP-[3H]fucose), acceptor Type 1", "settings": "for total activity: from 25 ml cell culture", "experimental": "(§2) In a typical experiment, E. coli CLM4 (pGP1-2) cells haboring a plasmid carrying an H. pylori fucT gene (pBKHp763fucT39, pGEMH2, pGEMI6 or pGEMB3) were grown in 25 ml liquid LB medium with appropriate antibiotics (kanamycin and ampicillin) at 30° C. to an optical density of 0.5-0.7 at 600 nm. After being collected, the cells were washed once with M9 medium, resuspended in 5 ml of supplemented M9 medium, and farther incubated at 30° C. for 1 h. To induce the expression of the fucT gene, the cell culture was shifted to 42° C. by adding 5 ml prewarmed (55° C.) supplemented M9 medium. After incubation at 42° C. for 15 min, rifampicin was added to a final concentration of 200 μg/ml, and cell growth was continued at 42° C. for 20 min.\n(§3) For analysis of the protein on SDS-PAGE, a small aliquot (0.5 ml) of the cell culture was taken, and 2.5 μl of [^35S]-methionine (4.35×10^13 Bq/mmol, 3.7×10^8 Bq/ml, NEN™, Boston, Mass.) was added. After further growth at 30° C. for 30 min, the cells were harvested, resuspended in 100 μl sample buffer (50 mM Tris-HCl, pH6.8, 1% (w/v) SDS, 20 mM EDTA, 1% (v/v) mercaptoethanol, 10% (v/v) glycerol), and boiled for 3 min before loading on to the gel. For the preparation of the sample for the enzyme assay, the remaining part (major aliquot, 9.5 ml) of the cell culture after induction was further incubated at 30° C. for 30 min, then harvested. The cells were washed with 1.5 ml of 20 mM HEPES (pH 7.0), and resuspended in 1.5 ml of this buffer supplemented with 0.5 mM PMSF.\n(§4) Preparation of cell lysates or cell extracts for the fucosyltransferase assay. The E. coli cells containing overproduced Hp FucT proteins, which were in HEPES buffer with PMSF as described above, were disrupted with a French press at 7000 lb/in^2 at 4° C. The cell lysates were used directly for enzyme assays. For determining the location of the enzyme activities, the cytoplasmic and membrane fractions were separated as follows. The cell lysates were centrifuged at 13,000× g at 4° C. for 10 min. The cell debris were discarded and the supernatant was subjected to ultracentrifugation at 128,000× g (Beckman TL100/rotor 100.2) at 4° C. for 1 h. The supernatant was collected as the cytoplasmic fraction. The membrane pellets were resuspended in a small volume of the same buffer and treated with 1 M NaCl.\n(§5) Assays of Hp α1,2 and a 1,3 FucT activities were carried out according to the method described by Chan et al. (1995, Glycobiology 5:683-688) with some modifications. Reactions were conducted at 37° C. for 20 min in a volume of 20 μl containing 1.8 mM acceptor, 50 μM GDP-fucose, 60000 dpm GDP-[^3H]fucose, 20 mM HEPES buffer (pH7.0), 20 mM MnCl2, 0.1 M NaCl, 35 mM MgCl2, 1 mM ATP, 5 mg/ml BSA, and 6.2 μl of the enzyme preparation. The acceptors used in this study were: LacNAc [βGal 1-4 βGlcNAc], Le^X [βGal 1-4 (α Fuc1-3) βGlcNAc], Type 1 [[…] 1-3 βGlcNAc], and Le^a [βGal 1-3 (α Fuc1-4) βGlcNAc]. GDP-[^3H]fucose (1.9×10^11 Bq/ml/mmol) was obtained from American Radiolabeled Chemicals Inc. (St. Louis, Mo.). Sep-Pak Plus C-18 reverse-phase cartridges were purchased from Waters (Mississauga, ON). For calculation of the specific activity of the enzyme (micro-units per milligram protein), protein concentrations of the cell extracts were determined with a BCA protein assay kit (Pierce, Rockford, Ill.) using BSA as a standard according to the supplier's instructions."}, "[3]": {"test": "Fucosyltransferase assay (GDP-[3H]fucose), acceptor LacNAc", "experimental": "as §2, §3\n(§6) Preparation of cell lysates or cell extracts for the fucosyltransferase assay. […]\n(§7) Assays of Hp α1,2 and a 1,3 FucT activities were carried out according to the method described by Chan et al. (1995, Glycobiology 5:683-688) with some modifications. […] For calculation of the specific activity of the enzyme (micro-units per milligram protein), protein concentrations of the cell extracts were determined with a BCA protein assay kit (Pierce, Rockford, Ill.) using BSA as a standard according to the supplier's instructions."}, "[4]": {"test": "Reaction products by capillary electrophoresis, TMR-labeled acceptor Le^a", "settings": "acceptor Le^a labeled with TMR; authentic product Le^b", "description": "as §1"}, "[5]": {"test": "Reaction products by capillary electrophoresis, TMR-labeled acceptor Le^X", "settings": "acceptor Le^X labeled with TMR; peak co-migrated with standard Le^Y", "description": "as §1"}, "[6]": {"test": "Reaction products by capillary electrophoresis, TMR-labeled acceptor LacNAc", "settings": "acceptor LacNAc labeled with TMR; expected product H type 2", "description": "as §1"}, "[7]": {"test": "Fucosyltransferase assay (GDP-[3H]fucose), acceptor Le^a", "experimental": "as §2, §3, §6, §7"}, "[8]": {"test": "Fucosyltransferase assay (GDP-[3H]fucose), acceptor Le^X", "settings": "for total activity: from 25 ml cell culture", "experimental": "as §2, §3, §4, §5"}, "[9]": {"settings": "acceptor Type 1, cytoplasm fraction"}, "[10]": {"settings": "acceptor Le^x, membrane fraction"}},
  "note": "Several values for one entry are separate records, joined by “and”; a condition that tells them apart may be missing. Identical values can stand only once.",
  "data": [
    {"molecule": "B1", "values": [
      {"measurement": "reaction product in electropherogram", "setting": "[1]", "value": "new peaks co-migrating with authentic products"},
      {"measurement": "specific activity", "setting": "[2]; acceptor Type 1, proposed product H type 1, E. coli whole cell extract", "value": "309 ± 28", "unit": "μU/mg"},
      {"measurement": "relative activity (percentage of the total activity)", "setting": "[2]; [9]", "value": 100, "unit": "%"},
      {"measurement": "specific activity", "setting": "[2]; acceptor Type 1, cytoplasm fraction of E. coli CLM4 (pGP1-2, pGEMI6)", "value": 78, "unit": "μU/mg protein"},
      {"measurement": "total activity", "setting": "[2]; [9]", "value": 108, "unit": "μU"},
      {"measurement": "specific activity", "setting": "[2]; acceptor Type 1, membrane fraction of E. coli CLM4 (pGP1-2, pGEMI6)", "value": 8, "unit": "μU/mg protein"},
      {"measurement": "total activity", "setting": "[2]; acceptor Type 1, membrane fraction", "value": 3, "unit": "μU"},
      {"measurement": "relative activity (percentage of the total activity)", "setting": "[2]; acceptor Type 1, membrane fraction, listed as H. pylori α1,2 FucT", "value": 3, "unit": "%"},
      {"measurement": "relative activity (percentage of the total activity)", "setting": "[2]; acceptor Type 1, membrane fraction, listed as Hp α1,2 FucT", "value": "less than 3%"},
      {"measurement": "relative activity", "setting": "[2]; acceptor Type 1, relative to UA802 α1,2 FucT on its best substrate Type 1", "value": 100, "unit": "%"},
      {"measurement": "activity compared to Le^X", "setting": "[2]; acceptor Type 1 versus Le^X", "value": 2, "unit": "fold"},
      {"measurement": "specific activity", "setting": "[3]; E. coli whole cell extract containing the overexpressed FucT protein", "value": "14 ± 8", "unit": "μU/mg"},
      {"measurement": "α1,2 FucT activity (in words)", "setting": "[3]; enzyme from pGEMI6", "value": "almost no activity was detected"},
      {"measurement": "relative activity", "setting": "[3]; relative to UA802 α1,2 FucT on its best substrate Type 1", "value": 4.5, "unit": "%"},
      {"measurement": "reaction product in electropherogram", "setting": "[4]", "value": "new peaks co-migrating with authentic products"},
      {"measurement": "reaction product in electropherogram", "setting": "[5]", "value": "a small new peak was produced"},
      {"measurement": "reaction product in electropherogram", "setting": "[6]", "value": "no reaction product representing H type 2 was observed"},
      {"measurement": "activity compared to Le^X", "setting": "[7]; acceptor Le^a versus Le^X", "value": 2, "unit": "fold"},
      {"measurement": "specific activity", "setting": "[7]; acceptor Le^a, proposed product Le^b, E. coli whole cell extract", "value": "301 ± 13", "unit": "μU/mg"},
      {"measurement": "relative activity", "setting": "[7]; acceptor Le^a, relative to UA802 α1,2 FucT on its best substrate Type 1", "value": 97, "unit": "%"},
      {"measurement": "specific activity", "setting": "[8]; acceptor Le^X, proposed product Le^Y, E. coli whole cell extract", "value": "150 ± 33", "unit": "μU/mg"},
      {"measurement": "α1,2 FucT activity (in words)", "setting": "[8]; acceptor Le^X, enzyme from pGEMI6", "value": "considerable activity was observed"},
      {"measurement": "activity in the membrane fraction (in words)", "setting": "[8]; acceptor Le^X, membrane fraction", "value": "no detectable activity"},
      {"measurement": "relative activity", "setting": "[8]; acceptor Le^X, relative to UA802 α1,2 FucT on its best substrate Type 1", "value": 49, "unit": "%"},
      {"measurement": "relative activity (percentage of the total activity)", "setting": "[8]; acceptor Le^x, cytoplasm fraction", "value": 100, "unit": "%"},
      {"measurement": "specific activity", "setting": "[8]; acceptor Le^x, cytoplasm fraction of E. coli CLM4 (pGP1-2, pGEMI6), listed as H. pylori α1,2 FucT", "value": "41 μU/mg protein and 38 μU/mg protein"},
      {"measurement": "total activity", "setting": "[8]; acceptor Le^x, cytoplasm fraction, listed as H. pylori α1,2 FucT", "value": "54 μU and 49 μU"},
      {"measurement": "relative activity (percentage of the total activity)", "setting": "[8]; [10]", "value": 0, "unit": "%"},
      {"measurement": "specific activity", "setting": "[8]; acceptor Le^x, membrane fraction of E. coli CLM4 (pGP1-2, pGEMI6)", "value": 0, "unit": "μU/mg protein"},
      {"measurement": "total activity", "setting": "[8]; [10]", "value": 0, "unit": "μU"}
    ]}
  ]
}
